Reference: PMC4156907 (Molecular cell, 2014)
Read-outs that look alike come from different tables or passages of the source. Blank lines part the entries; values can stand above or below the binder they belong to.

Tests used:
[1] = biological target: T1, MDA5 (full length, FLAG-tagged) (UniProt Q9BYX4 1-1025); experiment: co-IP
T1 sequence (looked up): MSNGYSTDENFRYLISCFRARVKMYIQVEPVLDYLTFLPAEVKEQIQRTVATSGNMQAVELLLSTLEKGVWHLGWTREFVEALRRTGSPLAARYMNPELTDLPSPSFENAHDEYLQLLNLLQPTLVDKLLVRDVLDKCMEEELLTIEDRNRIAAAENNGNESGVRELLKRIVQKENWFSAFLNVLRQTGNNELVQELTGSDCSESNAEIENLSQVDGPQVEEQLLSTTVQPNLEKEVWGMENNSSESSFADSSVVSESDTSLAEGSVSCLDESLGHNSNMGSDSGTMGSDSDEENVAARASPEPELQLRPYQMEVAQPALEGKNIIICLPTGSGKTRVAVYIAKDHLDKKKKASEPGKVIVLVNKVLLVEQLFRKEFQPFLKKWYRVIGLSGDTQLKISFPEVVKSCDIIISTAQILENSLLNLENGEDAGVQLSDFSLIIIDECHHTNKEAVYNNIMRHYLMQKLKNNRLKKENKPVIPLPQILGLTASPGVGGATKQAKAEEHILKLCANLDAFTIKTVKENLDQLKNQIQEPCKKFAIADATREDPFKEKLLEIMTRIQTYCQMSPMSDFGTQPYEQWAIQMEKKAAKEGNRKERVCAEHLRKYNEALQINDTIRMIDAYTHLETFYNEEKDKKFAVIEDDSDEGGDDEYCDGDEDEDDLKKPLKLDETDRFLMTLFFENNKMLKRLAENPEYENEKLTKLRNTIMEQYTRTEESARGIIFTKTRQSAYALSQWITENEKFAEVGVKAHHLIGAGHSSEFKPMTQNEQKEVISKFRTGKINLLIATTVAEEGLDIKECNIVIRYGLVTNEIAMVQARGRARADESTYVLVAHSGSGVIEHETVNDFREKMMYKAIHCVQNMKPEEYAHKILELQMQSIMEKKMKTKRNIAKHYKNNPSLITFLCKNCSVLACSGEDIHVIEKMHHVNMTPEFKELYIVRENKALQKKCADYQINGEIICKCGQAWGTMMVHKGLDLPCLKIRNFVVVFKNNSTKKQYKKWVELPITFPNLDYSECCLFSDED

[2] = biological target: T2, MDA5-C (UniProt Q9BYX4 295-1025); experiment: single-molecule TIRF
T2 sequence: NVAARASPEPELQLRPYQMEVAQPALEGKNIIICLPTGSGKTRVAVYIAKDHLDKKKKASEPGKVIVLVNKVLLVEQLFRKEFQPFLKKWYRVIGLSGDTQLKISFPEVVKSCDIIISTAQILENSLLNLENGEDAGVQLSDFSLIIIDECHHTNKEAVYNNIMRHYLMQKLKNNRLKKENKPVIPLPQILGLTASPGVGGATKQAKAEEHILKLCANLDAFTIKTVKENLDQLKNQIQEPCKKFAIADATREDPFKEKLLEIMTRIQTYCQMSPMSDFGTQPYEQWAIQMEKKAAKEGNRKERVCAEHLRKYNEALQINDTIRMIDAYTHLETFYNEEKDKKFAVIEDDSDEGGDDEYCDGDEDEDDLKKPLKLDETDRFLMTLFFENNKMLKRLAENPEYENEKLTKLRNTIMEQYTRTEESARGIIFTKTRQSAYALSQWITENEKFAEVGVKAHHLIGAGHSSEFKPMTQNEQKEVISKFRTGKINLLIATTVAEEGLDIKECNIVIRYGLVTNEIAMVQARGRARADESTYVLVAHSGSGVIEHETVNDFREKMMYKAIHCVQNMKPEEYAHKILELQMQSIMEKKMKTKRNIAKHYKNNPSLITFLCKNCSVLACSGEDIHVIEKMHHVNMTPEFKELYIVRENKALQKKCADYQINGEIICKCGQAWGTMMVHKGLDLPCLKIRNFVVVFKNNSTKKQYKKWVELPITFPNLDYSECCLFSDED

[3] = biological target: T2, MDA5-C; experiment: single-molecule TIRF; remark: listed apart in the source
[4] = biological target: T3, LGP2 (UniProt Q96C10 1-678); experiment: single-molecule TIRF
T3 sequence: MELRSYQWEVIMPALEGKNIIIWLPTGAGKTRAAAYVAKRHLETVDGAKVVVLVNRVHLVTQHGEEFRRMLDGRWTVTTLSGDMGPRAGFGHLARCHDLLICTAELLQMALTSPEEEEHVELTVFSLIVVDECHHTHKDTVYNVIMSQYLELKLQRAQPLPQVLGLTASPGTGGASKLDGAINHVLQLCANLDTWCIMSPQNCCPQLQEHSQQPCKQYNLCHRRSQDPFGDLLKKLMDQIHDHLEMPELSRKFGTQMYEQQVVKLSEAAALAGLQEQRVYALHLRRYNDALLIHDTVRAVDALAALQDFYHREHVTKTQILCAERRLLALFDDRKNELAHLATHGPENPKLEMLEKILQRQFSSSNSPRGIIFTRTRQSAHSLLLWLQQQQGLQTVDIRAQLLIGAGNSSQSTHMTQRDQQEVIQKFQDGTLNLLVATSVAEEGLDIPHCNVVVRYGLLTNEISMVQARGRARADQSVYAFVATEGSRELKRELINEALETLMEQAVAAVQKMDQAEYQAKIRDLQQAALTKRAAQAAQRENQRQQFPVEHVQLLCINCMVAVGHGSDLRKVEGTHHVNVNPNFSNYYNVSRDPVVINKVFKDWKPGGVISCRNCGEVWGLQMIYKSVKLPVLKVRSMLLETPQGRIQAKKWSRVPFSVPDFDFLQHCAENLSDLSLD

- fold increase of co-precipitated LGP2 with poly(I:C) against without poly(I:C) [1]: > 3 fold
B1: LGP2 (FLAG-tagged) (natural protein, UniProt Q96C10 1-678, looked up)
chain: T3 sequence

B2: 44bp dsRNA (dsRNA)
RNA 1: CGAGCAGACUGGCAAUCCGGAUCUCCCAGGCCCGGCUUUCAAGC
RNA 2: GCUUGAAAGCCGGGCCUGGGAGAUCCGGAUUGCCAGUCUGCUCG
modifications: strand 2 5' amino modifier C6 (5AmMC6)
- Kd [2]: 771 ± 207 nM
- Kd [3]: 326 ± 138 nM
- Kd [4]: 56.1 ± 10 nM
